Results published in PMC7679967.

Target: human Hsp90β (HSP90AB1) (human) (UniProt P08238)
Assay: SEC-MALS

human Hsp90β (HSP90AB1), P08238 1-724 (natural protein; other documents disagree on this pair), sequence (P08238 whole entry): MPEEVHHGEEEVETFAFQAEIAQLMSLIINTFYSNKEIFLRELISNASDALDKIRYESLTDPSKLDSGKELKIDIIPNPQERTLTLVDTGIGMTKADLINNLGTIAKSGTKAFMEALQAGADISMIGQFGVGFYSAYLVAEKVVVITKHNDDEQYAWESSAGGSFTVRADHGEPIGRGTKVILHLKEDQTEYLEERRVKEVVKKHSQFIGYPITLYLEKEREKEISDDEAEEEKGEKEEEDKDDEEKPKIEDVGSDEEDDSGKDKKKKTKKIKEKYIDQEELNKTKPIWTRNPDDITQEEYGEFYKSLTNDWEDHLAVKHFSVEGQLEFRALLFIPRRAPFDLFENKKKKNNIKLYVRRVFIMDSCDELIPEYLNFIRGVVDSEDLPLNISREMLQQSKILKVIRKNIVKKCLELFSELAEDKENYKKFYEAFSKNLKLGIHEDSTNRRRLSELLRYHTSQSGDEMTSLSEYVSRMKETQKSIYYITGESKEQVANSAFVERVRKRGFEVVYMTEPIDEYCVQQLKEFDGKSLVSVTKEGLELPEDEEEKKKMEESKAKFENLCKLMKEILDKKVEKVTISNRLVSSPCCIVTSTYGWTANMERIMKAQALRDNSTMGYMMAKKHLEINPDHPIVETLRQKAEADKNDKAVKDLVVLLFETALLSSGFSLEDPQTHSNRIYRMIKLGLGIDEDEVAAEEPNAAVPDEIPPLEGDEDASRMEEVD

stoichiometry N: 2
Substance: human Hsp90β (HSP90AB1), P08238 1-724 (natural protein; other documents disagree on this pair)
